In the RNAGym collection of RNA variant scans (doi:10.1073/pnas.2313332121):

B1: TPR t1 (parent)
chain: GACCAAUCUGCCCUCAGAGCUCGAGAACAUCUUCGGAUGCAGAGGAGGCAGGCUUCGGUGGCGCGAUAGCGCCAACGUCCUCAACCUCCAAUGCAUCCCACCACAUGAUGAUGCCUGAAGAGCCUUGGUUUUUUG

Variants of: B1
Experiment: polymerase ribozyme fitness, log enrichment relative to wild type (log ratio); higher = more active; in vitro selection for triplet polymerase activity
Procedure, shortened: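 Libraries of mutants in each subunit of a heterodimeric triplet polymerase ribozyme were generated by PCR and transcribed. In triplicate, each went through one in vitro selection round: annealing with biotinylated primer, partner subunit and triplets; frozen incubation at −7 °C; gel excision of extended constructs; streptavidin-bead capture; RT-PCR. Fitness, taken from Illumina sequencing of input and output libraries, is the logarithm of a genotype's enrichment over wild-type enrichment, averaged across replicates with inverse-variance weights. The logarithm is base 2, and genotypes needed ≥10 input reads and ≥1 read per output to be kept.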

| Variant | polymerase ribozyme fitness (log ratio) |
| --- | --- |
| GACCAAUCUGCCCUCAGAGCUUGAGAACAUCUUCGGAUGCAGAGGAGGCAGGCUACGGUGGCGCGAUAGCGCCAACGUCCUCAACCUCCAAUGCAUCCCACCACAUGAUGAUGCCUGAAGAGCCUUGGUUUUUUG [C22U U55A] | -3.49 |
| GACCAAUCUGCCCUCAGAGCUCAAGAACAUCUUCGGAUGCAGAGGAGGAAGGCUUCGGUGGCGCGAUAGCGCCAACGUCCUCAACCUCCAAUGCAUCCCACCACAUGAUGAUGCCUGAAGAGCCUUGGUUUUUUG [G23A C49A] | -5.5 |
| GACCAAUCUGCCCUCAGAGCUCAAGAACAUCUUCGGAUGCAGAGGAGGCAGGCUUCGGUGGCGCGAUAGCGCCAACGUCCUCAACCUCCAAUGCAUCCCACCACAUGAUGAUGCCUGAAGAGCCUUGGUUUUUUG [G23A] | -4.43 |
| GACCAAUCUGCCCUCAGAGCUUGAGAACAUCUUCGGAUGCAGAGGAGGCAGGCUUCGGCGGCGCGAUAGCGCCAACGUCCUCAACCUCCAAUGCAUCCCCCCACAUGAUGAUGCCUGAAGAGCCUUGGUUUUUUG [C22U U59C A100C] | -3.95 |
| GACCAAUCUGCCCUCAGAGCUUGAGAACAUCUUCGGACGCAGAGGAGGCAGGCUUCGGUGGCGCGAUAGCGCCAACGCCCUCAACCUCCAAUGCAUCCCACCACAUGAUGAUGCCUGAAGAGCCUUGGUUUUUUG [C22U U38C U78C] | -4.58 |
| GACCAAUCUGCCCUCAGAGCUUGAGAACAUCUUCGGAUGCAGAGGAGGCAGGCUUCGGUGGCGCGAUAGCGCCAACGUCCUCAACCUCCAAUCCAUCCCACCACAUGAUGAUGACUGAAGAGCCUUGGUUUUUUG [C22U G93C C114A] | -6.86 |
| GACCAAUCUGCCCUCAGAGCUCAAGAACAUCUUCGGAUGCAGAGGCGGCAGGCUUCGGUGGCGCGAUAGCGCCAACGUCCUCAACCUCCAAUGCAUCCCACCACAUGAUGAUGCCUGAAGAGCAUUGGUUUUUUG [G23A A46C C124A] | -5.92 |
| GACCAAUCUGCCCUCAGAGCUCAAGAACAUCUUCGGAUGCAGAGGAGGUAGGCUUAGGUGGCGCGAUAGCGCCAACGUCCUCAACCUCCAAUGCAUCCCACCACAUGAUGAUGCCCGAAGAGCCUUGGUUUUUUG [G23A C49U C56A U116C] | -6.08 |
| GACCAAUCUGCCCUCAGAGCUUGAGAACAUCUUCGGAUGCAGAGGAGGCAGGCUGCGGUGGCGCGAUAGCGACAACGUCCUCAACCUCCAAUGCAUCCCACCACAAGAUGAUGCCUGAAGAGCCUUGGUUUUUUG [C22U U55G C72A U106A] | -3.49 |
| GACCAAUCUGCCCUCAGAGCUUGAGAACAUCUUCGGAUGCAGAGGAGGCAGGCUUCGGUGGCGCGAUAGCCCCAACGUCCUCAACCUCCAAUGCAUCCCACCACAUGAUGAUGCCUGAAGAGCCUUGGUUUUUUG [C22U G71C] | -4.89 |
| GACCAAUCUGCCCUCAGAGCUUGAGAACAUCUUCGGAUGCAGAGGAGGCAGGCUGCGGUGGCGCGAUAGCGCCAACGUCCUCAACCUCCAAUGCAUCCCACCACAUGAUGAUGCCUGAAGAGACUUGGUUUUUUG [C22U U55G C123A] | -4.35 |
| GACCAAUCUGCCCUCAGAGCUUGAGAACAUCUUCGGAUGCAGAGGAGGCAGGCUUCGGUGGCGCGAUAGCGCCAACGUCCACAACCUGCAAUGCAUCCCACCACAUGAUGAUGCCUGAAGAGCCUUGGUUUUUUG [C22U U81A C88G] | -5.9 |
| GACCAAUCUGCCCUCAGAGCUUGAGAACAUCUUCGGAUGCAGAGGAGGCAGGCUUCGGUGGCGCGAUAGCGCCAACGUCCUCAACCUCCAAUGCAUCCCACCACAUGAUGAUCCCUGAAGAGCCUUGGUUUUUUG [C22U G113C] | -6.59 |
| GACCAAUCUGCCCUCAGAGCUUGAGAACAUCUACGAAUGCAAAGGAGGCAGGCUUCGGUGGCGCGAUAGCGUCAACGUCCUCAACCACCAAUGCAUCCCACCACAUGAUGAUACCUGAAGAGCCUUGGUUUUUUG [C22U U33A G36A G42A C72U U87A G113A] | -6.59 |
| GACCAAUCUGCCCUCAGAGCUUGAGAACAUCUUCGGAUGCAGAGGAGGCAGGCUUCGGUGGCGCGAUAGCGCCAACGUCCUCAACCUCCAAUACAUCCCACCACAUGAUGAUGCCUGAAGAGCCUUGGUUUUUUG [C22U G93A] | -3.97 |
| GACCAAUCUGCCCUCAGAGCUUGAGAACAUCUUCGGAUGCAGAGGAGGCAGGCUUCGGUGGCGCGAUAGCGCCAACGUCCUCAACCUCCAAUUCAUCCCACCACAUGAUGAUGCCUGAAGAGCCUUGGUUUUUUG [C22U G93U] | -5.26 |
| GACCAAUCUGCCCUCAGAGCUCAAGAAGAUCUUCGGAUGCAGAGGAGGCAGGCUUCGGUGGCGCGAUAUCGCCAACGGUCUCAACCUCCAAUGCAUCCCACCACAUGAUGACGCCUGAAGAGCCUUGUUUUUGUG [G23A C28G G69U U78G C79U U112C G128U U133G] | -5.41 |
| GACCAAUCUGCCCUCAGAGCUUGAGAACAUCUUCGGAUGCAGAGGAGGCAGGCUUCGGUGGCGCGAUAGCGCCAACGCCCUCAACCUCCAAUGCAUCCCACCACAUGAUGAUGCCUGAAGAGCCUUGGUUUUUUG [C22U U78C] | -3.42 |
| GACCAAUCUGCCCUCAGAGCUUGAGAACAUCUUCGGAUGCAGAGGAGGCAGGCUUCGGUGGCGCGAUAGCGCCAACAUCCUCAACCUCCAAUGCAUCCCACCACAUGAUGAUGCCUGAAGAGCCUUGGUUUUUUG [C22U G77A] | -4.04 |
| GACCAAUCUGCCCUCAGAGCUCAAGAACAUCUUCGGAUGCAGCGGAGGCAGGCUUCGGUGGCGCGAUAGCGCCAACGUCCUCAGCCCCCAAUGCAUCCCACCACAUGAUGAUGCCUUAAGAGCCUUGGUUUUUUG [G23A A43C A84G U87C G117U] | -6.59 |
| GACCAAUCUGCCCUCAGAGCUUGAGAACAUCUUCGGAUGCAGAGGAGGCAGGCUUCGGUGGCGCGAUAGCGCCAACGUCCUCAACCUCCAAUGCAUCCCACCACAUGAUGAAGCCUGAAGAGCCUUGGUUUUUUG [C22U U112A] | -2.83 |
